Laboratory results: patent publication US20240092853A1 (Hoffmann-La Roche, published 2024)

Molecular target: T1, IL2R(bg)-Fc construct (human IL2R beta extracellular domain fused to Fc(knob) with avi tag, human IL2R gamma … (human, biotin on the C-terminal avi tag (co-expressed BirA)))
T1 construct: Knob-into-hole Fc heterodimer; also called IL2Rβγ; human heterodimeric IL-2 receptor beta/gamma
Test: ELISA: IL2R(bg)-Fc coated ('100nM IL2R coated'), soluble IL2v in bacterial supernatant adjusted to pH 6 or pH 7.4, washing at the same pH, detection with anti-Flag/HRP
Method: Bacterial supernatant was harvested by centrifugation and pH was adjusted to either pH 6 or pH 7.4 using Bis-Tris buffer (final concentration: 50 mM BisTris, 140 mM NaCL). Supernatant was incubated in Neutravidin plates that were previously coated with the biotinylated IL2R(bg)-Fc construct and blocked with BSA. While extensive washing after 1 h was performed with Bis-Tris washing buffer at the respective pH 6 or 7.4 (50 mM BisTris, 140 mM NaCL, 0.1% Tween), all subsequent steps were performed at pH 6 to avoid any pH-dependent secondary effects. Binding of IL2v to the IL2R(bg)-Fc construct was detected via Flag tag by using an anti-Flag/HRP secondary antibody.

T1 sequence (chain, as listed by the source limits assumed, chain 1 of 2): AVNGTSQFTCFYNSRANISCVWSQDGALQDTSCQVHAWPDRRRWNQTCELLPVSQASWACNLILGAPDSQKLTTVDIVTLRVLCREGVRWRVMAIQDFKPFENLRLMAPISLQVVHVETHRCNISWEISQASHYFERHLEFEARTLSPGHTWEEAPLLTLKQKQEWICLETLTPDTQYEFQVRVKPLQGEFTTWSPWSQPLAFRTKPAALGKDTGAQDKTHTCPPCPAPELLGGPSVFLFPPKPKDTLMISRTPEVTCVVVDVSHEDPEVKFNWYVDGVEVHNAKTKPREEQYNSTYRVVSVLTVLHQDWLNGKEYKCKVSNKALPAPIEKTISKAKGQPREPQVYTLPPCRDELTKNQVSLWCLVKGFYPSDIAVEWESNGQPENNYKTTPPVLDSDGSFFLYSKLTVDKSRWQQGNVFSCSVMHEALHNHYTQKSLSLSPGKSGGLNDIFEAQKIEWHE
T1 sequence (chain, as listed by the source limits assumed, chain 2 of 2): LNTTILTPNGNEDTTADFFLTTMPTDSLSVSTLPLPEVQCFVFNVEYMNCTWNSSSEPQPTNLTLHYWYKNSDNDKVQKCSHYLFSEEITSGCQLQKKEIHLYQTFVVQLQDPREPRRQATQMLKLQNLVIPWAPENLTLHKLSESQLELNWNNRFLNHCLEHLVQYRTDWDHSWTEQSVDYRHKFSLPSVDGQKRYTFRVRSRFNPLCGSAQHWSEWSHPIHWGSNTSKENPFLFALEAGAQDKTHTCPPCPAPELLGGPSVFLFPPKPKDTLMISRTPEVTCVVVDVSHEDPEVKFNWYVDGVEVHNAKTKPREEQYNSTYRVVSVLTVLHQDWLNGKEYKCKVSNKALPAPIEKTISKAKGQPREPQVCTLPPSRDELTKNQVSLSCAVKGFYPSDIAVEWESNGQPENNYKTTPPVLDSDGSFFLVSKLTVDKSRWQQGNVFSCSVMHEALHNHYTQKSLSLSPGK

B1: IL2v (soluble, from the phagemid, in bacterial supernatant) (ligand)
chain: APASSSTKKTQLQLEHLLLDLQMILNGINNYKNPKLTRMLTAKFAMPKKATELKHLQCLEEELKPLEEVLNGAQSKNFHLRPRDLISNINVIVLELKGSETTFMCEYADETATIVEFLNRWITFAQSIISTLT
notes: human IL-2 with T3A, F42A, Y45A, L72G, C125A; also called parental IL2v; not shown: C-terminal His tag and Flag tag of the phagemid
B1: binds.
